# The supplement of paper PMC9732359
# ± gives the uncertainty stated by the source.
# Experiment: protein stability index of a GFP-peptide fusion (yeast GPS) (PSI 1-4); higher = more stable; sorted into four equal gates, so the index is relative within each strain
# Conditions: doa10∆
# In short: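 Each library plasmid carries Cherry plus GFP with a tiled 17-residue yeast protein peptide fused downstream, and the pooled library was carried in yeast. Mid-log cultures in leucine-free medium were sorted into four equal gates by GFP/Cherry ratio. Reads from Illumina sequencing of PCR-amplified plasmids from each gate were assigned to strains by barcodes. Per peptide, the protein stability index was computed as the summed products of gate read frequency and gate number.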
row,Sequence,protein stability index
1,QRRGPLVVYAEDNGIVK [RPL4A],3.43 ± 0.11
2,QRRYVIKEKVQFNATIN [ITC1],1.47 ± 0.04
3,QRTTTGARVFGALKGAS [RPL5],2.88 ± 0.2
4,QSAIRPAGQATQKRTHV [RPL4A],2.83 ± 0.09
5,QSALSQIIRLFYSKNRL [ISW2],2.62 ± 0.066
6,QSDLEIITQYVFESLEI [ARP9],2.35 ± 0.067
7,QSDSAKVEIKKVNSRDD [PRP28],3.08 ± 0.079
8,QSLLSLYFEIIHGVLKN [FAS2],2.37 ± 0.12
9,QSLNEMVKLIVMLCTLT [YJL039C/NUP192],2.52 ± 0.071
10,QSRLFINELVLENFKSY [SMC4],1.75 ± 0.053
11,QSSAIGALQESVEAYLV [HHT1],2.04 ± 0.077
12,QSTNLNRSAKNSKNDSA [YCS4],2.53 ± 0.05
13,QSTPVLLNHGERAELET [RPN1],3.03 ± 0.13
14,QTIMKMGPLSNIAQMIP [SRP54],2.6 ± 0.081
15,QTKDSVKEIVLPLFYDL [IRR1],2.42 ± 0.06
16,QTKRWPTMYTRLCICSG [SIN4],1.4 ± 0.039
17,QTLKGVGVENNGQYAAF [RPC37],3.12 ± 0.14
18,QTLSEKEYQCSAVIIDE [YIL149C/MLP2],2.64 ± 0.11
19,QTMQLIKNVQDLLILTR [SRB6],1.51 ± 0.087
20,QVASIIESFVELGVSIY [NUT2],2.77 ± 0.13
21,QVATKYASLKLPNQIPG [YMR129W/POM152],1.69 ± 0.038
22,QVEKLGKKMEARGQSIW [RPN9],1.34 ± 0.15
23,QVKKPRKQRVKKKTKKE [SWI1],3.13 ± 0.24
24,QVPDSLDDQIFVCEKSI [RPN6],3.01 ± 0.2
25,QVRRDIPSAAFNFFEPI [YMR129W/POM152],1.9 ± 0.036
26,QVSINSNKILVYESEME [YIL149C/MLP2],2.3 ± 0.11

row,Sequence,protein stability index
1,QVVTTVASQSPHATATE [SNF6],2.56 ± 0.11
2,QVVVDAITNTGPREDTT [RPS5],2.95 ± 0.064
3,QWLNNALKRSYGIFGEG [POP8],2.8 ± 0.08
4,QYATVSKTHKTVSRAYG [RPL34A],2.05 ± 0.069
5,RAASIRARVKAFPKDDR [RPL3],1.22 ± 0.035
6,RADTDLAMNDDDFLSKK [SNF2],3.35 ± 0.094
7,RAGVTHVLSRLSYISAL [RET1],1.47 ± 0.074
8,RAINKVLCTRLRLSNFF [SIR2],1.72 ± 0.059
9,RAQVLSLGDGTNYYLTT [CSL4],2.6 ± 0.061
10,RARKDRMRVSVLEKYEV [SSN3],2.02 ± 0.11
11,RATTYEKLTMVFQDNVY [SIN4],2.2 ± 0.065
12,RDDALVVETITSLLNKV [RRP42],2.88 ± 0.071
13,RDEMSKAELPQWYTLQS [MED8],2.92 ± 0.05
14,RDVMCTDGVIGSRTTTN [RPO31],3.2 ± 0.11
15,RDYQRINKNSKIALREY [POP4],2.77 ± 0.081
16,REAYIENFAKGEHISAI [SWP82],2.98 ± 0.07
17,REIDALKKQLHVSHEAM [YIL149C/MLP2],2.88 ± 0.05
18,REISNFSKGDADVLVDR [SRP72],3.22 ± 0.098
19,REKALNEEAEARRLKNR [RPL19A],3.21 ± 0.075
20,RELILAKKQNYKLTNDE [YCG1],3.37 ± 0.067
21,RELREVIELPLKNPEIF [RPT4],2.71 ± 0.14
22,REMRRKVYAQLLESYKT [RPN7],2.36 ± 0.081
23,RETNDDIWRVAGKFELL [SNF2],2.54 ± 0.067
24,RFELHGDMTNSDAQSNL [REC8],2.93 ± 0.27
25,RFFWKRSTNKKSKILRK [UBP6],1.19 ± 0.19
26,RFRKLTSQEINDRLEAL [PRE8],3.07 ± 0.14

row,Sequence,protein stability index
1,RFTPGSFTNYITRSFKE [RPS0A],3.03 ± 0.16
2,RGPRNSREAVRHFGMGP [RPL18A],2.53 ± 0.25
3,RGPYLVIVPLSTLSNWS [SNF2],1.84 ± 0.051
4,RGRSVMKESVVEINSSE [ESC2],3.15 ± 0.11
5,RGTLTKNLKHIDVTFTK [RPL9A],3.32 ± 0.06
6,RGYWGTNLGQPHSLATK [RPS2],2.68 ± 0.23
7,RHGFNRSNTGALMRCSF [RPO21],2.71 ± 0.059
8,RHLRRTGKVSEFISIYS [RET1],1.48 ± 0.14
9,RIENPEKYAAAAPAATS [RPP0],2.95 ± 0.085
10,RILKLGTQLATLKNRGL [YGR119C/NUP57],2.29 ± 0.078
11,RIRKLTGQNFLTSNISS [REC8],1.6 ± 0.056
12,RKKTPAGDWKYDRQLSS [FAS2],1.25 ± 0.066
13,RKNDNANDHDESIDVDM [SMC3],2.83 ± 0.24
14,RKNRYVILQSDLEEAYA [RPT3],2.41 ± 0.22
15,RKSAPVDSWDREFLKVD [SKP1],3.25 ± 0.13
16,RKSKLNLDNLQKVSQLE [POP4],2.89 ± 0.2
17,RKTWKRQNTLSLWRYRK [RPL15A],3.45 ± 0.083
18,RKVEKEKNEKEREIKRR [UBP6],3.32 ± 0.056
19,RKWMEEKADYERELISN [YIL149C/MLP2],3.23 ± 0.045
20,RKYDLFQNLELETEQLS [SMC2],3.21 ± 0.073
21,RKYSFNYSSLPSPYKTT [YAR002W/NUP60],2.56 ± 0.054
22,RLAKSTENEIPNLIEKM [BRR2],1.62 ± 0.08
23,RLDNLQDIKKAKRVENF [DSN1],1.52 ± 0.059
24,RLIVDPNIADYITAKNN [PRP8],2.15 ± 0.076
25,RLKEINGWEKYLHNVEL [ISW2],2.97 ± 0.12
26,RLKGDIFCVGSGQTFAY [PRE2],2.39 ± 0.05

row,Sequence,protein stability index
1,RLKVFEGIPPPYDKKKR [RPL16A],2.99 ± 0.087
2,RLKYALNGREVKAILMQ [RPS4A],1.74 ± 0.073
3,RLNENKKIGCYMFANLE [CSN12],2.76 ± 0.17
4,RMIPPRMVRSIMWQLLD [SSN3],1.95 ± 0.18
5,RMKSITSTSQKIPSASI [SNF5],3.2 ± 0.082
6,RMPMDFKGVIVKIVDKD [PRE1],2.25 ± 0.17
7,RMSSEEVNSLLLQVNKT [GRR1],3.03 ± 0.16
8,RNAALRAKAEAAEFRYK [SCL1],2.9 ± 0.068
9,RNAQAQREAAAEYAQLL [RPS6A],2.88 ± 0.23
10,RNDKTLELMDSKKTGQF [POP1],3.34 ± 0.069
11,RNEEILRDIGECENEIK [SMC2],2.75 ± 0.094
12,RNFKKANLVNKESDLLE [BRN1],1.7 ± 0.099
13,RNFLETVELQVGLKNYD [RPL1A],3.01 ± 0.087
14,RNFSLAIIDKNTGLTFK [PRE4],3.14 ± 0.068
15,RNHKHALHGTAKALAAA [RPL29],2.502 ± 0.019
16,RNISFSDNNSRIMSRNF [SWI1],2.93 ± 0.047
17,RNKRAVQLPILKIIYTG [YJL039C/NUP192],1.6 ± 0.056
18,RNNLPAKTFGASVRIFL [RPL33A],2.81 ± 0.052
19,RNPDIYTREFVEAIRRS [NUT2],2.42 ± 0.068
20,RNVNWIERLTKRQFNNS [ITC1],3.05 ± 0.12
21,RNVTIQLENADTGTLDT [RPN2],3.11 ± 0.095
22,RPKPVSPPCYIIDHIPG [SNF5],1.79 ± 0.098
23,RPSITEAMMLKEEGLQQ [MED1],3.41 ± 0.25
